Source: paper PMC10318394

Assays:
[1] = target: T1, phospholamban (PLN), wild type, in mouse heart (mouse), P61014; test: SDS-PAGE and western blot; details: remark: other sources report otherwise
T1 chain: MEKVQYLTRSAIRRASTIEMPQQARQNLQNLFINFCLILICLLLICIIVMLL

[2] = target: T2, synthetic full-length PLN, P61014; test: SDS-PAGE; details: remark: other sources report otherwise
T2 chain: T1 chain

B1: phospholamban (PLN), wild type, in mouse heart, P61014 1-52 (natural protein)
chain: T1 chain
stoichiometry N [1]: 5

B2: synthetic full-length PLN, P61014 1-52 (natural protein)
chain: T1 chain
stoichiometry N [2]: 5
